How the values were obtained:
Experiment in all cases: SPR; surface plasmon resonance; who was immobilised is not told in what was shown; mean +/- 95% CI, n=3
[1] = molecular target: TACI-Fc (extracellular domain of the BLyS receptor TACI fused to the Fc region of human IgG1) (UniProt O14836)
BAFFR-Fc = BAFFR-Fc (UniProt Q96RJ3)
BCMA-Fc = BCMA-Fc (UniProt Q02223)
Sequence of UniProt Q02223 (Q02223 1-54): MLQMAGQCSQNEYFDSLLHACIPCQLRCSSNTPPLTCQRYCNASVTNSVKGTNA

Sequence of UniProt Q96RJ3 (Q96RJ3 1-78): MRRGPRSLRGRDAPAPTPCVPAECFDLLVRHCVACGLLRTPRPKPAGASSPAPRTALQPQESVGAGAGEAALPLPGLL
Sequence of UniProt O14836 (O14836 1-165): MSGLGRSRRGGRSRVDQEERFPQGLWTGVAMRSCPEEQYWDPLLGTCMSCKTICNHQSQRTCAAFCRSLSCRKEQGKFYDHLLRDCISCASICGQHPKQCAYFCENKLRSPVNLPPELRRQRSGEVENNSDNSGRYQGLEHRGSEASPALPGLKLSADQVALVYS

Substance: BLyS-gelonin fusion toxin
- Kd [1]: 0.8 nM
- Kd (BAFFR-Fc): 2.6 nM
- Kd (BCMA-Fc): 6.2 nM

Reference: PMC3467252
